Patent US7288256B1, “T cell epitopes of the major allergens from dermatophagoides (house dust mite)” (Merck Patent GmbH, priority 1991, dated 2007)
Residues, ends and D or L forms follow the SMILES beside them.

What was measured:
[1] = pH-solubility profile of candidate peptides (HPLC of filtrate); format: physicochemical; details: for solubility thermodynamic at 24 h: at a pH in the pH range of pH 6 to pH 8, 50 mM sodium phosphate, about 22° C.
Method: Stock solution A: 0.66 g […] of monobasic sodium phosphate monohydrate U.S.P. and 50 mg EDTA disodium dihydrate, U.S.P. were dissolved in 100 mL of WFI. The solution was filtered through a 0.2 micron filter
Stock solution B: 0.71 g […] of dibasic sodium phosphate U.S.P. were disolved in 100 ml WFI. The solution was filtered through a 0.2 micron filter.
Dispersions A and B were sonicated for 2 minutes for good homogeneity. A small volume was pipetted from each dispersion into a labeled eppendoff vial according to the following volume ratio:
The resultant solutions/suspensions were stored in the dark at about 22° C.±2 for 24 hours without agitation. The solutions were filtered and filtrates were analyzed for pH and peptide concentration.

[2] = pH-stability profile of candidate peptides (percent degradant peak area by HPLC); details: for solution stability in equal concentration combination: 3, 2 and 1 mg/ml per peptide, 24 hours at about 5° C. and about 22° C., common window within pH 6 to pH 8; for stability (in words): single peptide, aqueous buffer, pH 6 to pH 8, development of DPII-22.14
Method: The concentration of filtered peptide solutions was determined by HPLC analysis. In this experiment, the solubility of peptide at each pH is defined as the amount of peptide remaining in solution after filtration through a membrane filter having a 0.2 micrometer pore size. The extent of degradation of peptides was estimated by calculating the percent of total degradant peak area over the total peak area.

human IgE = experiment: Direct binding ELISA of IgE to mite allergen proteins and peptides (Examples XIII, XV)
Method: Corning assay plates (#25882-96) were coated with 5 μg/ml of each coating antigen listed in FIGS. 19, 20 and 21 at […] and incubated overnight at 4° C. The coating antigens were removed and the wells are blocked with 0.5% gelatin in PBS, 300 μl/well for 2 hours at room temperature. […] Louis, Mo.) and 100 μl/well a\was added and incubated overnight at 4° C. (plasma dilutions were tested in duplicate). The second antibody (biotinylated goat anti-Human IgE, 1:1000, Kirkegaard & Perry Laboratories Inc, Gaithersburg, Md.), was added at 100 μl/well for one hour at room temperature. This solution was removed and streptavidin-HRPO, 1:10000, (Southern Biotechnology Associates, Inc., Birmingham, Ala.) was then added at 100 μl/well for one hour at room temperature (all wells are washed three times with PBS-Tween between each incubation step). TMB Membrane Peroxidase Substrate system (Kirkegaard & Perry Laboratories) was freshly miced, and added at […]. The color was allowed to develop for 2-5 minutes. The reaction was stopped by the addition of […] of 1M phosphoric acid. Plates were read on a Microplate IL310 Autoreader (Biotech Instruments, Winooski, Vt.) with a 450 nm filter. The absorbance levels of duplicate wells were averaged. The order of coating antigens listed vertically in these figure legends corresponds in […] from left to right to the coating antigens listed for each histogram.

[3] = system: PBMC from mite-allergic patient; experiment: Primary PBMC proliferation (3H-thymidine) to Der p I/Der p II proteins and peptides, Example IV; format: cell-based, human; details: for CPM ± S.D.: 7 days culture; for S.I.: CPM with antigen / CPM medium only
Method: Peripheral blood mononuclear cells (PBMC) were purified by Ficoll-Hypaque centrifugation of a peripheral blood specimen from mite-allergic patient and were assayed for proliferation in response to various antigens, i.e., affinity-purified Der p I, affinity purified […], various Der p I and Der p II peptides. For assay, 5×10^4 PBMC were cultured in triplicate microwells for 7 days at 37° C. in the presence of various concentrations of antigen in 200 μl RPMI-1640 containing 5% human AB serum. Each well then received 1 μCi tritiated thymidine for 16 hours. The counts incorporated were collected onto glass fiber filters and processed for liquid scintillation counting. […] The CPM+/− standard deviation are shown. The stimulation index of each response (S.I.) is the ratio of the ^3H-thymidine CPM incorporated by the cells in response to antigen divided by the ^3H-thymidine CPM incorporated by cells in medium only. […] Thus, these peptides contain Der p I or Der p II T cell epitopes recognized by T cells from this particular allergic patient.

[4] = pooled human plasma from 20 mite skin test positive patients, coating antigen 5 μg/ml, FIGS. 19-21

For `CC(C)C[C@H](NC(=O)[C@H](Cc1ccc(O)cc1)NC(=O)[C@H](C)NC(=O)[C@H](CO)NC(=O)[C@H](CCC(=O)O)NC(=O)[C@@H](NC(=O)[C@H](C)NC(=O)[C@H](C)NC(=O)[C@@H](N)C(C)C)[C@@H](C)O)C(=O)N[C@@H](C)C(=O)N[C@@H](Cc1ccc(O)cc1)C(=O)N[C@@H](CCCNC(=N)N)C(=O)N[C@@H](CC(N)=O)C(=O)N[C@H](C(=O)N[C@@H](CO)C(=O)N[C@@H](CC(C)C)C(=O)N[C@@H](CC(=O)O)C(=O)N[C@@H](CC(C)C)C(=O)N[C@@H](CO)C(=O)N[C@@H](CCC(=O)O)C(=O)N[C@@H](CCC(N)=O)C(=O)N[C@@H](CCC(=O)O)C(=O)N[C@@H](CC(C)C)C(=O)N[C@H](C(=O)N[C@@H](CC(=O)O)C(=O)O)C(C)C)[C@@H](C)O` [DF I-22.2] (H-VAATESAYLAYRNTSLDLSEQELVD-OH; N-terminus and C-terminus assumed), the solubility thermodynamic at 24 h [1] was over 3000 µg/mL and the “solution stability in equal concentration combination” value [2] was “acceptable solution stability”.

For `CC[C@H](C)[C@H](NC(=O)[C@H](CO)NC(=O)[C@H](C)NC(=O)[C@H](CCCCN)NC(=O)[C@@H](NC(=O)[C@H](CCC(=O)O)NC(=O)[C@@H](NC(=O)[C@H](CCCCN)NC(=O)[C@H](C)NC(=O)[C@@H](NC(=O)[C@H](CCCCN)NC(=O)[C@@H](NC(=O)[C@H](CC(N)=O)NC(=O)[C@H](CCC(N)=O)NC(=O)[C@H](CC(N)=O)NC(=O)[C@H](C)NC(=O)[C@H](CCC(=O)O)NC(=O)[C@H](Cc1ccccc1)NC(=O)[C@@H](NC(=O)[C@H](C)NC(=O)[C@H](CCC(=O)O)NC(=O)[C@H](CC(C)C)NC(=O)[C@@H](N)CCC(N)=O)C(C)C)[C@@H](C)O)[C@@H](C)O)[C@@H](C)CC)[C@@H](C)CC)C(=O)N[C@@H](CC(=O)O)C(=O)NCC(=O)N[C@@H](CC(C)C)C(=O)N[C@@H](CCC(=O)O)C(=O)N[C@H](C(=O)O)C(C)C` [DP II-22] (H-QLEAVFEANQNTKTAKIEIKASIDGLEV-OH; N-terminus and C-terminus assumed), the “solubility (in words, against the superior solubility standard of 3 mg/ml)” value ([1]; development of DPII-22.14 from DpII-22) was “did not meet the “superior solubility” requirement of 3 mg/ml”, the “stability (in words)” value [2] was “stable” and the “stability (in words)” value ([2]; listed as QLEAVFEANQNTKTAKIEIKASIDGLEV) was “nor did it meet the stability requirement”.

With `CC(C)C[C@H](NC(=O)[C@H](CCC(=O)O)NC(=O)[C@H](CCCCN)NC(=O)[C@@H](N)CC(=O)O)C(=O)N[C@@H](CCC(=O)O)C(=O)N[C@@H](C)C(=O)N[C@H](C(=O)N[C@@H](Cc1ccccc1)C(=O)N[C@@H](CCC(=O)O)C(=O)N[C@@H](C)C(=O)N[C@@H](CC(N)=O)C(=O)N[C@@H](CCC(N)=O)C(=O)N[C@@H](CC(N)=O)C(=O)N[C@H](C(=O)N[C@@H](CCCCN)C(=O)N[C@H](C(=O)N[C@@H](C)C(=O)N[C@@H](CCCCN)C(=O)N[C@@H](C)C(=O)N[C@@H](CCC(=O)O)C(=O)O)[C@@H](C)O)[C@@H](C)O)C(C)C` [DP II-22.14] (H-DKELEAVFEANQNTKTAKAE-OH; N-terminus and C-terminus assumed) the solubility thermodynamic at 24 h [1] was over 3000 µg/mL and the “solution stability in equal concentration combination” value [2] was “acceptable solution stability”.

B1: Der p II: Group II protein allergen of Dermatophagoides pteronyssinus, immunoaffinity purified native form (protein)
chain: DQVDVKDCANHEIKKVLVPGCHGSEPCIIHRGKPFQLEAVFEANQNTKTAKIEIKASIDGLEVDVPGIDPNACHYMKCPLVKGQQYDIKYTWNVPKIAPKSENVVVTVKVMGDDGVLACAIATHAKIRD
In the case of B1, the “IgE binding in direct ELISA” value (human IgE; plasma from 19 mite-allergic patients and a pool of 18 additional patients, Example XV) is reported as “All samples did contain IgE”, the “IgE binding in direct ELISA” value (human IgE; [4]) is reported as “good binding” and the “CPM ± S.D.” value ([3]; antigen 10 μg/ml) is reported as 1113 ± 35 CPM. For the same molecule, the S.I. ([3]; antigen 10 μg/ml) was 1.0, the “CPM ± S.D.” value ([3]; antigen 30 μg/ml) was 2104 ± 43 CPM and the S.I. ([3]; antigen 30 μg/ml) was 2.0. For the same molecule, the “CPM ± S.D.” value ([3]; antigen 100 μg/ml) was 1057 ± 27 CPM and the S.I. ([3]; antigen 100 μg/ml) was 1.0.

B2: biochemically purified Der f II: Group II protein allergen of Dermatophagoides farinae, immunoaffinity purified native form (protein)
chain: DQVDVKDCANNEIKKVMVDGCHGSDPCIIHRGKPFTLEALFDANQNTKTAKTEIKASLDGLEIDVPGIDTNACHFMKCPLVKGQQYDAKYTWNVPKIAPKSENVVVTVKLVGDNGVLACAIATHAKIRD
For B2, the “IgE binding in direct ELISA” value (human IgE; [4]) was “binding”.

B3: recombinant Der f II: recombinant Der f II expressed in E. coli as His6 fusion (protein)
chain: MGHHHHHHEFDQVDVKDCANNEIKKVMVDGCHGSDPCIIHRGKPFTLEALFDANQNTKTAKTEIKASLDGLEIDVPGIDTNACHFMKCPLVKGQQYDAKYTWNVPKIAPKSENVVVTVKLVGDNGVLACAIATHAKIRD
With B3 the “IgE binding in direct ELISA” value (human IgE; [4]) was “binding”.

B4: biochemically purified Der f I: Group I protein allergen of Dermatophagoides farinae, immunoaffinity purified native form (protein)
chain: TSACRINSVNVPSELDLRSLRTVTPIRMQGGCGSCWAFSGVAATESAYLAYRNTSLDLSEQELVDCASQHGCHGDTIPRGIEYIQQNGVVEERSYPYVAREQRCRRPNSQHYGISNYCQIYPPDVKQIREALTQTHTAIAVIIGIKDLRAFQHYDGRTIIQHDNGYQPNYHAVNIVGYGSTQGDDYWIVRNSWDTTWGDSGYGYFQAGNNLMMIEQYPYVVIM
With B4 the “IgE binding in direct ELISA” value (human IgE; [4]) was “binding”.

B5: rDer p II: recombinant Der p II expressed in E. coli as His6 fusion (protein)
chain: MGHHHHHHEFDQVDVKDCANHEIKKVLVPGCHGSEPCIIHRGKPFQLEAVFEANQNTKTAKIEIKASIDGLEVDVPGIDPNACHYMKCPLVKGQQYDIKYTWNVPKIAPKSENVVVTVKVMGDDGVLACAIATHAKIRD
In the case of B5, the “IgE binding in direct ELISA” value (human IgE; [4]) is reported as “good binding”.

B6: recombinant Der f I: recombinant Der f I expressed in E. coli as His6 fusion (protein)
chain: MGHHHHHHEFTSACRINSVNVPSELDLRSLRTVTPIRMQGGCGSCWAFSGVAATESAYLAYRNTSLDLSEQELVDCASQHGCHGDTIPRGIEYIQQNGVVEERSYPYVAREQRCRRPNSQHYGISNYCQIYPPDVKQIREALTQTHTAIAVIIGIKDLRAFQHYDGRTIIQHDNGYQPNYHAVNIVGYGSTQGDDYWIVRNSWDTTWGDSGYGYFQAGNNLMMIEQYPYVVIM
For B6, the “IgE binding in direct ELISA” value (human IgE; [4]) was “no detectable binding”.
